Data reported in IntAct's records for PubMed 18273061.

B1: Vascular endothelial growth factor receptor 1 (Homo sapiens), P17948 (parent)
chain: MVSYWDTGVLLCALLSCLLLTGSSSGSKLKDPELSLKGTQHIMQAGQTLHLQCRGEAAHKWSLPEMVSKESERLSITKSACGRNGKQFCSTLTLNTAQANHTGFYSCKYLAVPTSKKKETESAIYIFISDTGRPFVEMYSEIPEIIHMTEGRELVIPCRVTSPNITVTLKKFPLDTLIPDGKRIIWDSRKGFIISNATYKEIGLLTCEATVNGHLYKTNYLTHRQTNTIIDVQISTPRPVKLLRGHTLVLNCTATTPLNTRVQMTWSYPDEKNKRASVRRRIDQSNSHANIFYSVLTIDKMQNKDKGLYTCRVRSGPSFKSVNTSVHIYDKAFITVKHRKQQVLETVAGKRSYRLSMKVKAFPSPEVVWLKDGLPATEKSARYLTRGYSLIIKDVTEEDAGNYTILLSIKQSNVFKNLTATLIVNVKPQIYEKAVSSFPDPALYPLGSRQILTCTAYGIPQPTIKWFWHPCNHNHSEARCDFCSNNEESFILDADSNMGNRIESITQRMAIIEGKNKMASTLVVADSRISGIYICIASNKVGTVGRNISFYITDVPNGFHVNLEKMPTEGEDLKLSCTVNKFLYRDVTWILLRTVNNRTMHYSISKQKMAITKEHSITLNLTIMNVSLQDSGTYACRARNVYTGEEILQKKEITIRDQEAPYLLRNLSDHTVAISSSTTLDCHANGVPEPQITWFKNNHKIQQEPGIILGPGSSTLFIERVTEEDEGVYHCKATNQKGSVESSAYLTVQGTSDKSNLELITLTCTCVAATLFWLLLTLFIRKMKRSSSEIKTDYLSIIMDPDEVPLDEQCERLPYDASKWEFARERLKLGKSLGRGAFGKVVQASAFGIKKSPTCRTVAVKMLKEGATASEYKALMTELKILTHIGHHLNVVNLLGACTKQGGPLMVIVEYCKYGNLSNYLKSKRDLFFLNKDAALHMEPKKEKMEPGLEQGKKPRLDSVTSSESFASSGFQEDKSLSDVEEEEDSDGFYKEPITMEDLISYSFQVARGMEFLSSRKCIHRDLAARNILLSENNVVKICDFGLARDIYKNPDYVRKGDTRLPLKWMAPESIFDKIYSTKSDVWSYGVLLWEIFSLGGSPYPGVQMDEDFCSRLREGMRMRAPEYSTPEIYQIMLDCWHRDPKERPRFAELVEKLGDLLQANVQQDGKDYIPINAILTGNSGFTYSTPAFSEDFFKESISAPKFNSGSSDDVRYVNAFKFMSLERIKTFEELLPNATSMFDDYQGDSSTLLASPMLKRFTWTDSKPKASLKIDLRVTSKSKESGLSDVSRPSFCHSSCGHVSEGKRRFTYDHAELERKIACCSPPPDYNSVVLYSTPPI
B2: Protein sprouty homolog 2 (Homo sapiens), O43597 (parent)
chain: MEARAQSGNGSQPLLQTPRDGGRQRGEPDPRDALTQQVHVLSLDQIRAIRNTNEYTEGPTVVPRPGLKPAPRPSTQHKHERLHGLPEHRQPPRLQHSQVHSSARAPLSRSISTVSSGSRSSTRTSTSSSSSEQRLLGSSFSSGPVADGIIRVQPKSELKPGELKPLSKEDLGLHAYRCEDCGKCKCKECTYPRPLPSDWICDKQCLCSAQNVIDYGTCVCCVKGLFYHCSNDDEDNCADNPCSCSQSHCCTRWSAMGVMSLFLPCLWCYLPAKGCLKLCQGCYDRVNRPGCRCKNSNTVCCKVPTVPPRNFEKPT

Variants of: B1
Conditions: with cbl_human CBL

effect of a mutation on the interaction | Variant
increasing interaction | L1332R

Variants of: B1
Conditions: with cbl_human CBL
Remark: another data set of the same source

effect of a mutation on the interaction | Variant
increasing interaction | V1331N

Variants of: B2
Conditions: with cbl_human CBL

effect of a mutation on the interaction | Variant
disrupting interaction | N53A

Variants of: B2
Conditions: with cbl_human CBL
Remark: another data set of the same source

effect of a mutation on the interaction | Variant
disrupting interaction | Y55F

Variants of: B2
Conditions: with cbl_human CBL
Remark: another data set of the same source

effect of a mutation on the interaction | Variant
decreasing interaction | P59A
